Data from the supplement of paper PMC10567573.

B1: CRYL1 (parent)
chain: RNALENIRKEMKLLEQAGSLKGSL

Variants of: B1
Experiment: protein stability index of a GFP-peptide fusion (GPS, HEK-293T) (PSI 1-6); higher = more stable
Conditions: c terminus: a fixed tail appended
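Note: lentivirally expressed fusions sorted by FACS into six bins by GFP to DsRed ratio, PSI derived from sequencing read proportions per bin multiplied by bin number.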

Going from RNALENIRKEMKLLEQAGSLKCSL [G22C] to RNALENIRKEMKLLEQAGSLKDSL [G22D], the protein stability index rises from 2.65 to 4.1.

Going from RNALENIRKEMKLLEQAGSLKASL [G22A] to RNALENIRKEYKLLEQAGSLKGSL [M11Y], the protein stability index falls from 3.21 to 2.92.

First: RNALENIRKETKLLEQAGSLKGSL [M11T]
Second: RNALENIRKERKLLEQAGSLKGSL [M11R]
The protein stability index of the first is higher: 4.37 for the first, 4.01 for the second.

First: RNALENIRKESKLLEQAGSLKGSL [M11S]
Second: RNALENIRKELKLLEQAGSLKGSL [M11L]
The protein stability index of the first is higher: 4.92 for the first, 3.1 for the second.

First: RNALENIRKEWKLLEQAGSLKGSL [M11W]
Second: RNALENIRKEQKLLEQAGSLKGSL [M11Q]
The protein stability index of the first is lower: 2.21 for the first, 3.93 for the second.

Compared with RNALENIRKEVKLLEQAGSLKGSL [M11V], RNALENIRKEPKLLEQAGSLKGSL [M11P] is higher in protein stability index: 3.23 for the first, 4.49 for the second.

Compared with RNALENIRKEMKSLEQAGSLKGSL [L13S], RNALENIRKEMKDLEQAGSLKGSL [L13D] is higher in protein stability index: 4.04 for the first, 4.12 for the second.

Compared with RNALENIRKEMKTLEQAGSLKGSL [L13T], RNALENIRKEMKILEQAGSLKGSL [L13I] is higher in protein stability index: 3.04 for the first, 3.77 for the second.

First: RNALENIRKEMKRLEQAGSLKGSL [L13R]
Second: RNALENIRKEMKALEQAGSLKGSL [L13A]
The protein stability index of the first is lower: 3.66 for the first, 3.89 for the second.

Going from RNALENIRKEMKQLEQAGSLKGSL [L13Q] to RNALENIRKEMKPLEQAGSLKGSL [L13P], the protein stability index rises from 4.5 to 4.52.

Compared with RNALENIRKEMKYLEQAGSLKGSL [L13Y], RNALENIRKEMKNLEQAGSLKGSL [L13N] is higher in protein stability index: 2.98 for the first, 3.53 for the second.

Going from RNALENIRKEMKFLEQAGSLKGSL [L13F] to RNALENIRKEMKHLEQAGSLKGSL [L13H], the protein stability index rises from 2.85 to 4.32.

First: RNALENIRKEMKKLEQAGSLKGSL [L13K]
Second: RNALENIRKEMKGLEQAGSLKGSL [L13G]
The protein stability index of the first is lower: 3.87 for the first, 4.1 for the second.

First: RNALENIRKEMKELEQAGSLKGSL [L13E]
Second: RNALENIRKEMKLLEQPGSLKGSL [A17P]
The protein stability index of the first is higher: 3.94 for the first, 3.5 for the second.

Going from RNALENIRKEMKLLEQGGSLKGSL [A17G] to RNALENIRKEMKLLEQKGSLKGSL [A17K], the protein stability index rises from 3.4 to 3.51.

Compared with RNALENIRKEMKLLEQYGSLKGSL [A17Y], RNALENIRKEMKLLEQWGSLKGSL [A17W] is higher in protein stability index: 2.32 for the first, 2.33 for the second.

Compared with RNALENIRKEMKLLEQSGSLKGSL [A17S], RNALENIRKEMKLLEQQGSLKGSL [A17Q] is higher in protein stability index: 3.72 for the first, 4.01 for the second.

First: RNALENIRKEMKLLEQLGSLKGSL [A17L]
Second: RNALENIRKEMKLLEQDGSLKGSL [A17D]
The protein stability index of the first is lower: 3.18 for the first, 3.97 for the second.

First: RNALENIRKEMKLLEQMGSLKGSL [A17M]
Second: RNALENIRKEMKLLEQCGSLKGSL [A17C]
The protein stability index of the first is higher: 3.32 for the first, 2.48 for the second.

First: RNALENIRKEMKLLEQFGSLKGSL [A17F]
Second: RNALENIRKEMKLLEQRGSLKGSL [A17R]
The protein stability index of the first is lower: 2.22 for the first, 3.38 for the second.

Compared with RNALENIRKEMKLLEQNGSLKGSL [A17N], RNALENIRKEMKLLEQIGSLKGSL [A17I] is lower in protein stability index: 3.62 for the first, 2.71 for the second.

Going from RNALENIRKEMKLLEQEGSLKGSL [A17E] to RNALENIRKEMKLLEQTGSLKGSL [A17T], the protein stability index falls from 3.84 to 3.4.

Compared with RNALENIRKEMKLLEQVGSLKGSL [A17V], RNALENIRKEMKLLEQHGSLKGSL [A17H] is lower in protein stability index: 3.58 for the first, 3.06 for the second.

Compared with RNALENIRKEMKLLEQAGSLFGSL [K21F], RNALENIRKEMKLLEQAGSLVGSL [K21V] is higher in protein stability index: 2.35 for the first, 2.73 for the second.

Compared with RNALENIRKEMKLLEQAGSLLGSL [K21L], RNALENIRKEMKLLEQAGSLNGSL [K21N] is higher in protein stability index: 2.37 for the first, 3.34 for the second.

First: RNALENIRKEMKLLEQAGSLEGSL [K21E]
Second: RNALENIRKEMKLLEQAGSLTGSL [K21T]
The protein stability index of the first is higher: 3.93 for the first, 3.6 for the second.

Going from RNALENIRKEMKLLEQAGSLPGSL [K21P] to RNALENIRKEMKLLEQAGSLIGSL [K21I], the protein stability index falls from 2.79 to 2.4.

Going from RNALENIRKEMKLLEQAGSLGGSL [K21G] to RNALENIRKEMKLLEQAGSLAGSL [K21A], the protein stability index rises from 2.56 to 2.71.

Compared with RNALENIRKEMKLLEQAGSLCGSL [K21C], RNALENIRKEMKLLEQAGSLSGSL [K21S] is higher in protein stability index: 3.3 for the first, 3.46 for the second.

Going from RNALENIRKEMKLLEQAGSLRGSL [K21R] to RNALENIRKEMKLLEQAGSLWGSL [K21W], the protein stability index falls from 2.68 to 2.17.

First: RNALENIRKEMKLLEQAGSLQGSL [K21Q]
Second: RNALENIRKEMKLLEQAGSLYGSL [K21Y]
The protein stability index of the first is higher: 3.18 for the first, 2.78 for the second.

Going from RNALENIRKEMKLLEQAGSLDGSL [K21D] to RNALENIRKEMKLLEYAGSLKGSL [Q16Y], the protein stability index falls from 3.55 to 2.37.

Going from RNALENIRKEMKLLEAAGSLKGSL [Q16A] to RNALENIRKEMKLLENAGSLKGSL [Q16N], the protein stability index rises from 2.93 to 3.75.

Going from RNALENIRKEMKLLEEAGSLKGSL [Q16E] to RNALENIRKEMKLLEGAGSLKGSL [Q16G], the protein stability index falls from 3.75 to 3.7.

Compared with RNALENIRKEMKLLEKAGSLKGSL [Q16K], RNALENIRKEMKLLESAGSLKGSL [Q16S] is lower in protein stability index: 3.02 for the first, 2.62 for the second.

First: RNALENIRKEMKLLECAGSLKGSL [Q16C]
Second: RNALENIRKEMKLLEDAGSLKGSL [Q16D]
The protein stability index of the first is lower: 3.35 for the first, 4.1 for the second.

Going from RNALENIRKEMKLLEWAGSLKGSL [Q16W] to RNALENIRKEMKLLEIAGSLKGSL [Q16I], the protein stability index rises from 2.11 to 2.76.

First: RNALENIRKEMKLLEMAGSLKGSL [Q16M]
Second: RNALENIRKEMKLLEVAGSLKGSL [Q16V]
The protein stability index of the first is lower: 2.76 for the first, 2.89 for the second.

First: RNALENIRKEMKLLELAGSLKGSL [Q16L]
Second: RNALENIRKEMKLLERAGSLKGSL [Q16R]
The protein stability index of the first is lower: 2.06 for the first, 2.86 for the second.

Going from RNALENIRKEMKLLEPAGSLKGSL [Q16P] to RNALENIRKEMKLLEHAGSLKGSL [Q16H], the protein stability index falls from 3.3 to 3.25.

Compared with RNALENIRKEMKLLETAGSLKGSL [Q16T], RNALENIRKEMKLLEFAGSLKGSL [Q16F] is lower in protein stability index: 3.01 for the first, 2.71 for the second.

Compared with RNALENIRKEMKLLCQAGSLKGSL [E15C], RNALENIRKEMKLLVQAGSLKGSL [E15V] is lower in protein stability index: 3.2 for the first, 2.39 for the second.

Compared with RNALENIRKEMKLLYQAGSLKGSL [E15Y], RNALENIRKEMKLLKQAGSLKGSL [E15K] is higher in protein stability index: 2.21 for the first, 2.48 for the second.

Compared with RNALENIRKEMKLLLQAGSLKGSL [E15L], RNALENIRKEMKLLQQAGSLKGSL [E15Q] is higher in protein stability index: 2.16 for the first, 3.57 for the second.

First: RNALENIRKEMKLLNQAGSLKGSL [E15N]
Second: RNALENIRKEMKLLWQAGSLKGSL [E15W]
The protein stability index of the first is higher: 3.16 for the first, 1.49 for the second.

Compared with RNALENIRKEMKLLAQAGSLKGSL [E15A], RNALENIRKEMKLLMQAGSLKGSL [E15M] is higher in protein stability index: 2.17 for the first, 2.87 for the second.

First: RNALENIRKEMKLLTQAGSLKGSL [E15T]
Second: RNALENIRKEMKLLSQAGSLKGSL [E15S]
The protein stability index of the first is higher: 3.08 for the first, 2.58 for the second.
